Key:
RsAgo delL777 = molecular target: T1, RsAgo delL777 (Rhodobacter sphaeroides (ATCC 17025D-5), UniProt A4WYU7 1-776, del777-777); experiment: fluorescence polarization; 5 mM Mg2+; FP: 20 mM HEPES-KOH pH 7.5, 200 mM NaCl, 5 mM MgCl2, 0.01 mg/ml E. coli total tRNA, 0.01% NP-40, 10 pM probe, 25 C; EMSA: 20 mM HEPES-KOH pH 7.5, 200 mM NaCl, 5
T1 sequence: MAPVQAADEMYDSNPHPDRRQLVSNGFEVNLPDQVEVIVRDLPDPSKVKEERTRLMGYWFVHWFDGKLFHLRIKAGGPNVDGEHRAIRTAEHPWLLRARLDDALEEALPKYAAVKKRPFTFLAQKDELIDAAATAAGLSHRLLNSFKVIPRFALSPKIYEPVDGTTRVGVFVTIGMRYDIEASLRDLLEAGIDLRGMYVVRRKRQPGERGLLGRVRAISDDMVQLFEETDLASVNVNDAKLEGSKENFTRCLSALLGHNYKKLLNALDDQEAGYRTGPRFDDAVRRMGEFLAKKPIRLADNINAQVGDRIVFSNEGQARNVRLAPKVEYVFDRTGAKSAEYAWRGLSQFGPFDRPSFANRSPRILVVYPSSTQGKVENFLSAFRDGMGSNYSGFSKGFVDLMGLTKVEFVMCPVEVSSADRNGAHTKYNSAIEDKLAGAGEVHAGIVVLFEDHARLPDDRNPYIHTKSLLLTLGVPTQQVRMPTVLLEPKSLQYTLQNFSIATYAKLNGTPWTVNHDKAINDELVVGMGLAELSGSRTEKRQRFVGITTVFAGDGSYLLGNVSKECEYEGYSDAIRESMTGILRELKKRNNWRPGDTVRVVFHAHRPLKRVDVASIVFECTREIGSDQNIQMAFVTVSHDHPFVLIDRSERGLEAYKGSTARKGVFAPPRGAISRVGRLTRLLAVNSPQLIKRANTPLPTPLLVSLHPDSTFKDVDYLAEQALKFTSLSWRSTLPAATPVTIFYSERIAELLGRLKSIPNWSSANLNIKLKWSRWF

RsAgo Y463A/K467A = molecular target: T2, RsAgo Y463A/K467A (Rhodobacter sphaeroides (ATCC 17025D-5), UniProt A4WYU7 1-777, Y463A;K467A); experiment: as above
T2 sequence: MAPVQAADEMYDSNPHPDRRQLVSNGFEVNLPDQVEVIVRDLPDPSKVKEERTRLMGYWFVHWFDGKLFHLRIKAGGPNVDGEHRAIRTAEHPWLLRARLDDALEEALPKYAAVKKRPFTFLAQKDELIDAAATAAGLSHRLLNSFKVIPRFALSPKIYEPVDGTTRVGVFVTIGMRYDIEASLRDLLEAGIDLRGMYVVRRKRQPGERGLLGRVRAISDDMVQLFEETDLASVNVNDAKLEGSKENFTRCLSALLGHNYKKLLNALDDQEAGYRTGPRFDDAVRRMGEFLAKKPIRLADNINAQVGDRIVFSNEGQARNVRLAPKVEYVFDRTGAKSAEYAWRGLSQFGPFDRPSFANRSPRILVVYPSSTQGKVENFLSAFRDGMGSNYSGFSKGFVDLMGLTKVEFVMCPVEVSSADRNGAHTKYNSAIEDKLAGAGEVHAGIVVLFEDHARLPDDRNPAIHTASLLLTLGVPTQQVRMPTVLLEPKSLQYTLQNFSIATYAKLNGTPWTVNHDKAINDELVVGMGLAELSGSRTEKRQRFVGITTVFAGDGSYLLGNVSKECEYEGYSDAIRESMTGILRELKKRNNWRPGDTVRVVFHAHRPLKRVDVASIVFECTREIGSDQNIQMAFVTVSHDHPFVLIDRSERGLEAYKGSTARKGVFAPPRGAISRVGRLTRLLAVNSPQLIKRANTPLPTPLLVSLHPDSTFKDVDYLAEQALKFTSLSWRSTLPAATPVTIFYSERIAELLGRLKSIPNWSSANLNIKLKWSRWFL

RsAgo delP45-W63 = molecular target: T3, RsAgo delP45-W63 (Rhodobacter sphaeroides (ATCC 17025D-5), UniProt A4WYU7 1-777, del45-63); experiment: fluorescence polarization; 5 mM Mg2+; same binding capacity as WT; FP: 20 mM HEPES-KOH pH 7.5, 200 mM NaCl, 5 mM MgCl2, 0.01 mg/ml E. coli total tRNA, 0.01% NP-40, 10 pM probe, 25 C; EMSA: 20 mM HEPES-KOH pH 7.5, 200 mM NaCl, 5
T3 sequence: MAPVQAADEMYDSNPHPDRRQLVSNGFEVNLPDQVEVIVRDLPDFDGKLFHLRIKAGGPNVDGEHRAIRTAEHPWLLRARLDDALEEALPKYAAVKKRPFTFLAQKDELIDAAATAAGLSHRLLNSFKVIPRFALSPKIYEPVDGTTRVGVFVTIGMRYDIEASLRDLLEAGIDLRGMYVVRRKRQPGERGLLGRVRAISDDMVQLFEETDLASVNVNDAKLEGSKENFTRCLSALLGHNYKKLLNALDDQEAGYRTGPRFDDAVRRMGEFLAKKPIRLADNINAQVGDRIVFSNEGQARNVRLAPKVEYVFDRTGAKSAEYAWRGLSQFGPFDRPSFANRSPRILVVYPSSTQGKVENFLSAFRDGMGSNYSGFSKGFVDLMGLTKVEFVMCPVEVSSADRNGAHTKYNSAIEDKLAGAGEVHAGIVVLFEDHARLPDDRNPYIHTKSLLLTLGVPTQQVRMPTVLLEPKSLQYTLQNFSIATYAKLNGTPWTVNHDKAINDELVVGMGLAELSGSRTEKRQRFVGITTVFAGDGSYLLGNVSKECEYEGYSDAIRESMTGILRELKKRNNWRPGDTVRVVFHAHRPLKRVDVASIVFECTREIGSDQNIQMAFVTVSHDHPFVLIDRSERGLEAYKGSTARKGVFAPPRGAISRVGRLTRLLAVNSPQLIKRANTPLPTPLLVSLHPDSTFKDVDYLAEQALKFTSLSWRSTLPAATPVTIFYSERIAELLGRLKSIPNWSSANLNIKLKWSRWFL

Which results are given for UUACAACCUACUACCUCG (ssRNA, 5'-phosphate) [5'P-RNA (5'U-RNA), FAM]?
Kd (RsAgo delL777): 38.7 ± 2.1 nM; Kd (RsAgo Y463A/K467A): 1700 ± 123 nM; binding result (RsAgo delP45-W63): binds

Source: article PMC4919518
